Experimental data as given in the supplement of paper PMC6757056.
± gives the standard deviation of the averaged measurements.

B1: library; a variant is named by its letters at N, in order (parent)
chain: GCUGUCACCGGUGUAUUACCCUAGUGGUCGACCGGUCUGAUGAGUCUNNNNNNAGACGAAACAGC

Columns and labels:
[1] = variants of: B1; assay: normalized RNA/DNA level with ligand (relative to sTRSVctl = 100) (log10 (% of sTRSVctl)); ligand: hypoxanthine (xanthine aptamer); higher = less ribozyme self-cleavage, higher mRNA level; details: ligand concentration (+) RNA-Seq: 5 mM, HEK293T, reporter: mCherry (pCS4076), ligand present: yes
Summary of the method: (§1)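 Ribozyme switch library plasmids linked to reporters were introduced into HEK293T cells at 4 µg per 6-well well, with ligand, if any, added 1 h before. Total RNA was extracted with EDTA 72 h later, reverse-transcribed, amplified, barcoded and sequenced. RNA level was computed from RNA over DNA reads relative to a spiked-in non-cleaving sequence or the top sequences, then scaled and log-transformed. The top set was 25 sequences, values were ×100 and log10, and the cutoff was ≥100 DNA reads.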

[2] = variants of: B1; assay: normalized RNA/DNA level without ligand (relative to sTRSVctl = 100) (log10 (% of sTRSVctl)); ligand: hypoxanthine (xanthine aptamer); higher = less ribozyme self-cleavage, higher mRNA level; details: HEK293T, reporter: mCherry (pCS4076), ligand present: no
Summary of the method: as §1

Row | Variant | normalized RNA/DNA level with ligand (log10) [1] | normalized RNA/DNA level without ligand (log10) [2]
1 | GUAGGA | 1.892 ± 0.002 | 1.66 ± 0.033
2 | CUCCUG | 1.94 ± 0.021 | 1.953 ± 0.0068
3 | CUCCUA | 1.96 ± 0.075 | 1.87 ± 0.055
4 | CUCCUU | 1.99 ± 0.087 | 1.89 ± 0.056
5 | GUCCCC | 1.907 ± 0.017 | 1.825 ± 0.01
6 | GUCCCU | 1.934 ± 0.016 | 1.92 ± 0.05
7 | GUCCCA | 1.94 ± 0.02 | 1.9 ± 0.041
8 | AUCAGC | 1.94 ± 0.024 | 1.95 ± 0.047
9 | UUCAUA | 1.88 ± 0.019 | 1.8411 ± 0.0016
10 | UUCAUG | 1.95 ± 0.029 | 1.78 ± 0.056
11 | UUCAUU | 1.95 ± 0.025 | 1.91 ± 0.071
12 | UUCCAG | 1.9 ± 0.051 | 1.68 ± 0.064
13 | UUCCAU | 1.97 ± 0.074 | 1.882 ± 0.0027
14 | UUCCAA | 1.92 ± 0.097 | 1.8417 ± 0.0007
15 | CUAGGC | 1.94 ± 0.029 | 1.86 ± 0.086
16 | CUAGGU | 1.94 ± 0.028 | 1.88 ± 0.026
17 | UUACUC | 1.995 ± 0.0094 | 2.02 ± 0.038
18 | UUACUU | 1.93 ± 0.025 | 1.93 ± 0.043
19 | UUACUA | 1.93 ± 0.039 | 1.887 ± 0.011
20 | UUCGUC | 2.0298 ± 0.00024 | 2.03 ± 0.041
21 | UUCGUG | 1.964 ± 0.019 | 1.7 ± 0.041
22 | UUCGUU | 1.94 ± 0.11 | 1.84 ± 0.054
23 | AUACGU | 1.91 ± 0.032 | 1.84 ± 0.042
24 | UUAGGA | 1.857 ± 0.012 | 1.66 ± 0.032

Row | Variant | normalized RNA/DNA level with ligand (log10) [1] | normalized RNA/DNA level without ligand (log10) [2]
25 | UUAGGU | 1.92 ± 0.028 | 1.8 ± 0.031
26 | AUACUC | 1.93 ± 0.05 | 1.96 ± 0.071
27 | AUACUU | 1.92 ± 0.022 | 1.859 ± 0.0037
28 | UUAGCU | 1.97 ± 0.021 | 1.89 ± 0.023
29 | UUAGCA | 1.95 ± 0.025 | 1.85 ± 0.025
30 | UUAGCC | 1.95 ± 0.065 | 1.88 ± 0.025
31 | UUAGCG | 1.906 ± 0.018 | 1.8 ± 0.038
32 | GUCGGU | 1.91 ± 0.051 | 1.83 ± 0.035
33 | UUAUUG | 1.897 ± 0.017 | 1.714 ± 0.0023
34 | UUAUUC | 1.96 ± 0.045 | 1.936 ± 0.016
35 | UUAUUU | 1.91 ± 0.033 | 1.91 ± 0.031
36 | CUCGCA | 1.94 ± 0.062 | 1.847 ± 0.002
37 | CUCGCC | 1.99 ± 0.026 | 1.883 ± 0.0029
38 | CUCGCU | 1.95 ± 0.043 | 1.924 ± 0.014
39 | CUCGCG | 1.983 ± 0.0024 | 1.9 ± 0.084
40 | AUCAAC | 1.99 ± 0.031 | 1.84 ± 0.028
41 | AUCAAA | 1.921 ± 0.011 | 1.79 ± 0.034
42 | AUCAAU | 1.89 ± 0.038 | 1.78 ± 0.058
43 | AUAGAU | 1.91 ± 0.063 | 1.7097 ± 0.00076
44 | AUAGAG | 1.81 ± 0.037 | 1.31 ± 0.019
45 | AUCGUG | 1.82 ± 0.047 | 1.4 ± 0.076
46 | AUCGUA | 1.898 ± 0.017 | 1.74 ± 0.024
47 | AUCGUC | 2.03 ± 0.048 | 1.977 ± 0.0058
48 | AUCGUU | 1.98 ± 0.08 | 1.87 ± 0.043

Row | Variant | normalized RNA/DNA level with ligand (log10) [1] | normalized RNA/DNA level without ligand (log10) [2]
49 | CUAUAC | 1.954 ± 0.014 | 1.835 ± 0.0098
50 | CUAUAG | 1.93 ± 0.019 | 1.69 ± 0.068
51 | CUAUAA | 1.9 ± 0.037 | 1.8 ± 0.0052
52 | CUAUAU | 1.951 ± 0.014 | 1.81 ± 0.038
53 | AUAGGC | 1.91 ± 0.025 | 1.776 ± 0.0031
54 | AUAGGU | 1.908 ± 0.016 | 1.587 ± 0.015
55 | CUACGU | 1.98 ± 0.067 | 1.9 ± 0.027
56 | CUACGG | 1.93 ± 0.047 | 1.98 ± 0.071
57 | CUCCGC | 1.967 ± 0.019 | 1.95 ± 0.026
58 | CUCCGA | 1.96 ± 0.13 | 1.884 ± 0.0062
59 | CUCCGG | 1.93 ± 0.029 | 1.95 ± 0.065
60 | CUCCGU | 1.95 ± 0.051 | 1.88 ± 0.019
61 | AUCACG | 1.933 ± 0.0027 | 1.554 ± 0.015
62 | AUCACC | 1.98 ± 0.029 | 1.953 ± 0.011
63 | AUCACA | 1.908 ± 0.0044 | 1.84 ± 0.023
64 | AUCACU | 1.98 ± 0.024 | 1.884 ± 0.0058
65 | UUCGAG | 1.88 ± 0.038 | 1.544 ± 0.0067
66 | UUCGAC | 1.9 ± 0.074 | 1.781 ± 0.0058
67 | GUAGUC | 1.976 ± 0.012 | 1.81 ± 0.05
68 | GUAGUU | 1.96 ± 0.041 | 1.87 ± 0.046
69 | CUCGGA | 1.99 ± 0.03 | 1.84 ± 0.057
70 | GUACUC | 1.93 ± 0.053 | 1.92 ± 0.032
71 | GUACUU | 1.9422 ± 0.0012 | 1.889 ± 0.006
72 | GUACUA | 1.937 ± 0.014 | 1.86 ± 0.037

Row | Variant | normalized RNA/DNA level with ligand (log10) [1] | normalized RNA/DNA level without ligand (log10) [2]
73 | GUACUG | 1.883 ± 0.0029 | 1.53 ± 0.056
74 | AUAUCC | 1.938 ± 0.015 | 1.876 ± 0.018
75 | AUAUCA | 1.936 ± 0.0032 | 1.81 ± 0.021
76 | AUAUCU | 1.89 ± 0.026 | 1.844 ± 0.016
77 | GUAUGC | 1.868 ± 0.0093 | 1.46 ± 0.08
78 | UUCUAU | 1.95 ± 0.047 | 1.867 ± 0.016
79 | UUCUAG | 1.936 ± 0.0068 | 1.67 ± 0.059
80 | UUCUAC | 1.87 ± 0.041 | 1.89 ± 0.085
81 | GUCGUU | 1.97 ± 0.057 | 1.89 ± 0.032
82 | GUCGUG | 1.86 ± 0.043 | 1.37 ± 0.018
83 | GUCGUC | 2.03 ± 0.088 | 1.93 ± 0.058
84 | GUCGUA | 1.91 ± 0.088 | 1.79 ± 0.073
85 | AUCCCA | 1.92 ± 0.03 | 1.88 ± 0.02
86 | AUCCCU | 1.97 ± 0.042 | 1.9 ± 0.022
87 | AUCCCC | 1.93 ± 0.025 | 1.87 ± 0.036
88 | GUCGAU | 1.93 ± 0.07 | 1.76 ± 0.039
89 | CUCAGU | 1.97 ± 0.061 | 1.89 ± 0.079
90 | CUCAGG | 1.95 ± 0.041 | 1.88 ± 0.026
91 | CUCAGC | 2 ± 0.068 | 1.96 ± 0.01
92 | CUCAGA | 1.965 ± 0.012 | 1.8539 ± 0.00065
93 | CUCAUU | 1.99 ± 0.067 | 2.01 ± 0.08
94 | CUCAUG | 1.96 ± 0.042 | 1.91 ± 0.024
95 | CUAGUU | 1.919 ± 0.0027 | 1.9151 ± 0.00062
96 | CUAGUA | 1.918 ± 0.0099 | 1.8 ± 0.049

Row | Variant | normalized RNA/DNA level with ligand (log10) [1] | normalized RNA/DNA level without ligand (log10) [2]
97 | UUCAAC | 1.94 ± 0.044 | 1.873 ± 0.011
98 | CUAGCC | 1.95 ± 0.037 | 1.86 ± 0.064
99 | CUAGCG | 1.91 ± 0.068 | 1.824 ± 0.0032
100 | CUAGCU | 1.987 ± 0.0096 | 1.93 ± 0.042
101 | CUAGAG | 1.88 ± 0.018 | 1.64 ± 0.023
102 | CUACUG | 1.942 ± 0.0056 | 1.925 ± 0.0027
103 | CUACUU | 1.99 ± 0.028 | 1.83 ± 0.026
104 | CUACUC | 2.039 ± 0.013 | 1.95 ± 0.025
105 | GUCGCG | 1.93 ± 0.039 | 1.55 ± 0.055
106 | GUCGCU | 2.04 ± 0.038 | 1.904 ± 0.011
107 | GUCGCC | 1.9 ± 0.05 | 1.91 ± 0.08
108 | GUAUUC | 1.95 ± 0.073 | 1.931 ± 0.013
109 | GUAUUA | 1.92 ± 0.03 | 1.842 ± 0.017
110 | GUAUUU | 1.94 ± 0.079 | 1.859 ± 0.018
111 | CUCCCU | 1.94 ± 0.039 | 1.97 ± 0.043
112 | CUCCCA | 1.991 ± 0.0032 | 1.87 ± 0.046
113 | UUCAGC | 1.94 ± 0.026 | 1.93 ± 0.02
114 | UUCAGU | 1.947 ± 0.013 | 1.83 ± 0.036
115 | UUCAGA | 1.96 ± 0.037 | 1.823 ± 0.0059
116 | UUCAGG | 1.92 ± 0.025 | 1.79 ± 0.053
